{
  "source": "paper PMC8807537",
  "about": "(Acta Naturae, 2021)",
  "biological_target": "T1, recombinant protein GP Zaire ebolavirus (H. sapiens-wt/GIN/2014/Kissidougou-C15 strain) (Zaire ebolavirus, …, UniProt X5HMX4, strain)",
  "T1 construct": "also called EBOV GP; recombinant EBOV GP",
  "assay": "ELISA; indirect ELISA; […] (1 ug/ml) […]",
  "details": "both partners purified",
  "data": [
    {"binder": "control antibody MAb114 (antibody, V domains shown) VH: EVQLVESGGGLIQPGGSLRLSCAASGFALRMYDMHWVRQTIDKRLEWVSAVGPSGDTYYADSVKGRFAVSRENAKNSLSLQMNSLTAGDTAIYYCVRSDRGVAGLFDSWGQGILVTVSS VL: DIQMTQSPSSLSASVGDRITITCRASQAFDNYVAWYQQRPGKVPKLLISAASALHAGVPSRFSGSGSGTHFTLTISSLQPEDVATYYCQNYNSAPLTFGGGTKVEIK", "values": [
      {"measurement": "binding result", "value": "binds"}
    ]}
  ]
}
